Laboratory results reported in patent US20150004189A1 (published 2015).

Legend:
[1] = molecular target: HLA DQ molecule DQB1*0202 (human); assay: inhibition of radiolabeled peptide binding to purified HLA class II
[2] = molecular target: HLA DQ molecule DQB1*0602 (human); assay: as above
[3] = molecular target: T1, HLA DP molecule DPB1*0201 (human); assay: competition vs radiolabeled peptide, purified HLA-DP
T1 chain 1: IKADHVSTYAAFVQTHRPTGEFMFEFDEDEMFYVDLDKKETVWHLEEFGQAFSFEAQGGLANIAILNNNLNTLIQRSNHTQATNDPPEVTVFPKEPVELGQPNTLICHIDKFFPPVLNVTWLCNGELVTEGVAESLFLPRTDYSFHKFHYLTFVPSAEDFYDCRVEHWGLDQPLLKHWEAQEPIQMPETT
T1 chain 2: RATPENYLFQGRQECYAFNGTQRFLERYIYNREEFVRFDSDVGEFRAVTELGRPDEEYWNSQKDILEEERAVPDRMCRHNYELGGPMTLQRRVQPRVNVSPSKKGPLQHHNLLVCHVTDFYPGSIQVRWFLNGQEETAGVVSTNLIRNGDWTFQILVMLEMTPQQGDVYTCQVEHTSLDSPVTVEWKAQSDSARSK

[4] = molecular target: T2, HLA DP molecule DPB1*0401 (human); assay: as above
T2 chain 1: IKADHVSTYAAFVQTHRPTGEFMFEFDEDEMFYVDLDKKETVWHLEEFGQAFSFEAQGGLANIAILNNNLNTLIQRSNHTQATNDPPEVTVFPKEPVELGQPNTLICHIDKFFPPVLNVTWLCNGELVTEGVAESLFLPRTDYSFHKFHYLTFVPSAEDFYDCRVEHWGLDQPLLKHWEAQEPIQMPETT
T2 chain 2: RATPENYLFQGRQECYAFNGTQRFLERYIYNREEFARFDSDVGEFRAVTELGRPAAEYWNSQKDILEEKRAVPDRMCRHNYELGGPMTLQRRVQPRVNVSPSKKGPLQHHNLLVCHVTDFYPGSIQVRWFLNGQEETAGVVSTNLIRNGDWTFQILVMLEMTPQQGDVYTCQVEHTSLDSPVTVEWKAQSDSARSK

[5] = molecular target: HLA DQ molecule DQB1*0503 (human); assay: inhibition of radiolabeled peptide binding to purified HLA class II
HLA-DP DPB1*0401 = molecular target: T3, HLA-DP DPB1*0401 (human); assay: inhibition of radiolabeled peptide binding to purified HLA-DP
T3 chain 1: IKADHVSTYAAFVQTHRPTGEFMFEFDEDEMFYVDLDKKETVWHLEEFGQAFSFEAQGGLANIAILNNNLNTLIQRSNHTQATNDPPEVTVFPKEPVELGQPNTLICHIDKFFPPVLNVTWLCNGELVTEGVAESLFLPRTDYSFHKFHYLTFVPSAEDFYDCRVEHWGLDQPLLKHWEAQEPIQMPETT
T3 chain 2: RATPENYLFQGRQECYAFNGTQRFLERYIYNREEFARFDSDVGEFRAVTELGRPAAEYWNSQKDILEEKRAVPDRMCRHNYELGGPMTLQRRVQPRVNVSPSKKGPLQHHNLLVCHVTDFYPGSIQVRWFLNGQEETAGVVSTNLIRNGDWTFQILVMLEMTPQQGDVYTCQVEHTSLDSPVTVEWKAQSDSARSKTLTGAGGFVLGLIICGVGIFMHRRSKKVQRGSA

[6] = molecular target: HLA-DP molecule DPB1*1401 (human); assay: as above
[7] = molecular target: HLA-DP molecule DPB1*2001 (human); assay: as above
[8] = molecular target: HLA DQ molecule DQB1*0502 (human); assay: inhibition of radiolabeled peptide binding to purified HLA class II
[9] = molecular target: HLA DQ molecule DQB1*0202 (human); assay: as above; remark: listed apart in the source
[10] = molecular target: HLA DQ molecule DQB1*0602 (human); assay: as above; remark: listed apart in the source
[11] = molecular target: HLA-DQ molecule DQB1*0202 (human); assay: inhibition of radiolabeled peptide binding to purified HLA-DQ
[12] = molecular target: HLA-DQ molecule DQB1*0502 (human); assay: as above
[13] = molecular target: HLA-DQ molecule DQB1*0503 (human); assay: as above
[14] = molecular target: HLA-DQ molecule DQB1*0602 (human); assay: as above
[15] = molecular target: T4, HLA-DP molecule DPB1*0401 (human); assay: inhibition of radiolabeled peptide binding to purified HLA-DP
T4 chain 1: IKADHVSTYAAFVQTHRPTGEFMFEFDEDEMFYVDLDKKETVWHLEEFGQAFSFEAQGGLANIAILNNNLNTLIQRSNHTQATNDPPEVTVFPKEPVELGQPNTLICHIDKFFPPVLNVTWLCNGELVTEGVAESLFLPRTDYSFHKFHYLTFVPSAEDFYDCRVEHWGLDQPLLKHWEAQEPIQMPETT
T4 chain 2: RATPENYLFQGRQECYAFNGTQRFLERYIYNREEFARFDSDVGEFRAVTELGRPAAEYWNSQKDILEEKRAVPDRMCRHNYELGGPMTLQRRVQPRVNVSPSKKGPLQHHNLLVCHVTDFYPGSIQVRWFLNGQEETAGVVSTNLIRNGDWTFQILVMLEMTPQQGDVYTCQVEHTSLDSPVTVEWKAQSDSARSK

[16] = molecular target: HLA DQ molecule DQB1*0502 (human); assay: inhibition of radiolabeled peptide binding to purified HLA class II; remark: listed apart in the source

**Q.** With DGVWEIKSDKPLKGP [Lol p 2 peptide, position 51, DGVWEIKSDKPLKGP (Peptide ID 3324.1139)] as the binder, how does the IC50 [1] read?
**A.** Its IC50 is 530 nM.

**Q.** And the IC50 [2]?
**A.** Its IC50 is 26600 nM.

**Q.** How did the IC50 [3] turn out when IFYDVFFAVANGNEL [Fel d 1 2 peptide, position 26, IFYDVFFAVANGNEL (Peptide ID 3324.1052)] was run?
**A.** Its IC50 is 89 nM.

**Q.** And the IC50 [4]?
**A.** Its IC50 is 242 nM.

**Q.** Which IC50 [5] does the source give for GAYETYKFIPSLEAA [Pha a 5 peptide, position 201, GAYETYKFIPSLEAA (Peptide ID 3324.1433)] here?
**A.** The IC50 was 358 nM.

**Q.** What about the IC50 [2] of the same binder?
**A.** The IC50 was 846 nM.

**Q.** PARLFKAFVLDSDNL [Que a 1 peptide 16-30 PARLFKAFVLDSDNL (Peptide ID 3324.1585)] was tested. Which IC50 (HLA-DP DPB1*0401) did it give?
**A.** Its IC50 is 52 nM.

**Q.** How did the IC50 [6] turn out when LWEVKSAKPLTGPMN [Lol p 3 peptide, position 51, LWEVKSAKPLTGPMN (Peptide ID 3337.0031)] was run?
**A.** The IC50 was 18600 nM.

**Q.** What about the IC50 [7] of the same binder?
**A.** The IC50 was 671 nM.

**Q.** SDAKTLVLNIKYTRP [Lol p 3 peptide, position 11, SDAKTLVLNIKYTRP (Peptide ID 3324.1142)] was tested. Which IC50 [1] did it give?
**A.** The IC50 was 25700 nM.

**Q.** What about the IC50 [8] of the same binder?
**A.** The IC50 was 50000 nM.

**Q.** What about the IC50 [5] of the same binder?
**A.** The IC50 was 33900 nM.

**Q.** Which results are given for AIVYYSMYGHIKKMA [Alt a 7 (6-20) peptide AIVYYSMYGHIKKMA, Peptide ID 3324.0085]?
**A.** IC50 [9]: 6240 nM; IC50 [10]: 3350 nM

**Q.** Which results are given for IAFFRKEPLKECGGI [Lol p 11 peptide, position 116, IAFFRKEPLKECGGI (Peptide ID 3337.0029)]?
**A.** IC50 [1]: 26200 nM; IC50 [8]: 1440 nM; IC50 [5]: 903 nM; IC50 [2]: 50000 nM

**Q.** What does the source list for AETCPIFYDVFFAVA [Fel d 1 2 peptide, position 21, AETCPIFYDVFFAVA (Peptide ID 3324.1056)]?
**A.** IC50 [3]: 8.1 nM; IC50 [4]: 5.6 nM

**Q.** GSCWAFSGVAATESA [Der f 1 peptide, position 131, GSCWAFSGVAATESA (Peptide ID 3324.0670)] was tested. Which IC50 [3] did it give?
**A.** The IC50 was 9310 nM.

**Q.** And the IC50 [4]?
**A.** Its IC50 is 14400 nM.

**Q.** What does the source list for NALSVLDKIYTSPLC [Fel d 1 1 peptide, position 78, NALSVLDKIYTSPLC (Peptide ID 3324.1050)]?
**A.** IC50 [3]: 575 nM; IC50 [4]: 349 nM

**Q.** EKALWIIFSQNMNIK [Cup s 1 (86-100) peptide EKALWIIFSQNMNIK] was tested. Which IC50 [11] did it give?
**A.** The IC50 was 5560 nM.

**Q.** And the IC50 [12]?
**A.** Its IC50 is 13000 nM.

**Q.** And the IC50 [13]?
**A.** The IC50 was 1930 nM.

**Q.** How did the IC50 [4] turn out when NGNELLLDLSLTKVN [Fel d 1 2 peptide, position 36, NGNELLLDLSLTKVN (Peptide ID 3324.1055)] was run?
**A.** The IC50 was 590 nM.

**Q.** Which results are given for MRNVFDDVVPADFKV [Lol p 2 peptide, position 76, MRNVFDDVVPADFKV (Peptide ID 3337.0030)]?
**A.** IC50 [6]: 24200 nM; IC50 [7]: 82 nM

**Q.** Which IC50 [11] does the source give for NMNIKLKMPLYVAGH [Cup s 1 (96-110) peptide NMNIKLKMPLYVAGH] here?
**A.** The IC50 was 50000 nM.

**Q.** And the IC50 [12]?
**A.** The IC50 was 20800 nM.

**Q.** What about the IC50 [13] of the same binder?
**A.** The IC50 was 11700 nM.

**Q.** What about the IC50 [14] of the same binder?
**A.** Its IC50 is 14500 nM.

**Q.** With LIEKINAGFKAAVAA [Lol p 5 1 peptide, position 71, LIEKINAGFKAAVAA (Peptide ID 3324.1175)] as the binder, how does the IC50 [6] read?
**A.** Its IC50 is 2420 nM.

**Q.** Which results are given for IKSDKPLKGPFNFRF [Lol p 2 peptide, position 56, IKSDKPLKGPFNFRF (Peptide ID 3324.1140)]?
**A.** IC50 [8]: 38200 nM; IC50 [5]: 50000 nM; IC50 [2]: 50000 nM

**Q.** What does the source list for FKAAVAAAAGAPPAD [Poa p 5 peptide, position 61, FKAAVAAAAGAPPAD (Peptide ID 3324.1575)]?
**A.** IC50 [7]: 2940 nM; IC50 [15]: 28900 nM

**Q.** KALWIIFSQNMNIKL [Cup a 1 peptide 66-80 KALWIIFSQNMNIKL (Peptide ID 3324.0604)] was tested. Which IC50 (HLA-DP DPB1*0401) did it give?
**A.** Its IC50 is 1730 nM.

**Q.** Which results are given for DEYVEQVAQYKALPV [Fel d 1 1 (41-55) peptide DEYVEQVAQYKALPV, Peptide ID 3324.1049]?
**A.** IC50 [16]: 337 nM; IC50 [10]: 140 nM

**Q.** Which results are given for DAFIAALTEALRVIA [Pha a 5 peptide, position 121, DAFIAALTEALRVIA (Peptide ID 3324.1432)]?
**A.** IC50 [6]: 29700 nM; IC50 [7]: 31 nM

**Q.** AETCPIFYDVFFAVA [Fel d 1 2 (21-35) peptide AETCPIFYDVFFAVA, Peptide ID 3324.1056] was tested. Which IC50 [9] did it give?
**A.** The IC50 was 2100 nM.

**Q.** Which results are given for PAAAYATATPAAATA [Lol p 5 1 peptide, position 306, PAAAYATATPAAATA (Peptide ID 3324.1184)]?
**A.** IC50 [1]: 679 nM; IC50 [8]: 7450 nM; IC50 [2]: 224 nM
